2 substances from patent publication US20190300577A1 can be followed below.

Bounds are passed on as bounds.

Assay [1] has as its target recombinant mouse P-selectin Fc chimera (mouse) (UniProt Q01102). Briefly: Biacore; biotinylated glycopeptide captured on a streptavidin chip, mP-sel-Ig flowed over (trace shown at 20 µg/ml) [lower middle panel 'mP-sel-Ig (20 µg/ml)' (E in the legend].
In assay [2] the target is recombinant human P-selectin Fc chimera (human) (UniProt P16109). The assay can be described thus: flow cytometry; inhibition of human P-selectin Fc chimera binding to human U-937 cells.
Assay [3] shares this target. Briefly: flow cytometry; inhibition of human P-selectin Fc chimera binding to human peripheral blood monocytes.
For assay [4] the target is unchanged. The assay can be described thus: flow cytometry; inhibition of human P-selectin Fc chimera binding to human peripheral blood PMN.
The target in assay [5] is recombinant mouse P-selectin Fc chimera (mouse) (UniProt Q01102). Briefly: flow cytometry; inhibition of mouse P-selectin Fc chimera (2 µg/mL) binding to murine PMN.
Assay [6] shares this target. Briefly: Biacore; biotinylated glycopeptide on streptavidin chip, P-sel-Ig flowed.
In assay [7] the target is recombinant human P-selectin Fc chimera (human) (UniProt P16109). The assay is described as above.
The target of assay [8] is recombinant human L-selectin Fc chimera (human) (UniProt P14151). The assay can be described thus: flow cytometry; inhibition of human L-selectin Fc chimera binding to human U-937 cells.
Assay [9] has as its target recombinant mouse L-selectin Fc chimera (mouse) (UniProt P18337). The assay can be described thus: flow cytometry; inhibition of mouse L-selectin Fc chimera binding to murine neutrophils.
The target of the next assay is selectins on endothelium. Briefly: cell-based or functional assay.
The target in assay [10] is recombinant human P-selectin Fc chimera (human) (UniProt P16109). The assay can be described thus: Biacore; biotinylated glycopeptide on streptavidin chip, P-sel-Ig (2.5 to 60 µg/mL) flowed.
Assay [11] has the same target. The assay can be described thus: comparator value given with the Biacore results; method not stated.

Chain of recombinant human P-selectin Fc chimera (human) (P16109 42-771, change not shown): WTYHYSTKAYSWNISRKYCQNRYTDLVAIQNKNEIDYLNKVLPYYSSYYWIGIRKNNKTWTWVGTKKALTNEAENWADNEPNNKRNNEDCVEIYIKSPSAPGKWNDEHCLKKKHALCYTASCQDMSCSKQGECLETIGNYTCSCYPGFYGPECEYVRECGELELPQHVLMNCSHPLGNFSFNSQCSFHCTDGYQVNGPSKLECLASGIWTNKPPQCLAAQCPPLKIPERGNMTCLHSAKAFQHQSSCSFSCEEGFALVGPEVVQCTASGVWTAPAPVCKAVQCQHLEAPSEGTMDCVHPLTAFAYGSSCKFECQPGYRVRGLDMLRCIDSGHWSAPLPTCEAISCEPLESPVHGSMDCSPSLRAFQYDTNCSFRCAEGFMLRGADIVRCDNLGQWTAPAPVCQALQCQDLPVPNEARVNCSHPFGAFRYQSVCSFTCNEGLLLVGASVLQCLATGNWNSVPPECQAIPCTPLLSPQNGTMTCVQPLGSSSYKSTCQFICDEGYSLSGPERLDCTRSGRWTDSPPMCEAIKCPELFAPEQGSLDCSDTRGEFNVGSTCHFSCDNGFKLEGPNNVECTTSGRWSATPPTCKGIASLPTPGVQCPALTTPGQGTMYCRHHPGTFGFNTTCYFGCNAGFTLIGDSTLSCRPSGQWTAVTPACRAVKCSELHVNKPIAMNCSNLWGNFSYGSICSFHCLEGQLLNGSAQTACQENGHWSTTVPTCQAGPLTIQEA
Chain of recombinant mouse P-selectin Fc chimera (mouse) (Q01102 42-709, change not shown): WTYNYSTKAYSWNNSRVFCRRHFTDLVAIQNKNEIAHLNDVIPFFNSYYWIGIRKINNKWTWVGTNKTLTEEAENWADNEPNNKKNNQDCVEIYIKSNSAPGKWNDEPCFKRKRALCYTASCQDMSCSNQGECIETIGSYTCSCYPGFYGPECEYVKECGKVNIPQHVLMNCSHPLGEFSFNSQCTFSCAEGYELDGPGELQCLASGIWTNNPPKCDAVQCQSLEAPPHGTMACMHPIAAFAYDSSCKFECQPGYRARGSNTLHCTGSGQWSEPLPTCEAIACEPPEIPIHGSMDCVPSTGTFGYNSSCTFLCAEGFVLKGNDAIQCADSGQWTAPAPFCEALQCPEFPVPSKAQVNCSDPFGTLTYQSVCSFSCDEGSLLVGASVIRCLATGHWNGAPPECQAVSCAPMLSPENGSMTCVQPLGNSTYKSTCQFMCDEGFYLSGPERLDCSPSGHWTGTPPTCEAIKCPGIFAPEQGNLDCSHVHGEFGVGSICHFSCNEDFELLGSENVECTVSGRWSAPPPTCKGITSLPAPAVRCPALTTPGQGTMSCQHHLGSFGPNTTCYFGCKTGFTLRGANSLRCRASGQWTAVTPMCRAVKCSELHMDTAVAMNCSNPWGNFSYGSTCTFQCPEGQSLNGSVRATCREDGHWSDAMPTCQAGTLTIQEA
Chain of recombinant mouse L-selectin Fc chimera (mouse) (P18337 39-332, stated change not applied): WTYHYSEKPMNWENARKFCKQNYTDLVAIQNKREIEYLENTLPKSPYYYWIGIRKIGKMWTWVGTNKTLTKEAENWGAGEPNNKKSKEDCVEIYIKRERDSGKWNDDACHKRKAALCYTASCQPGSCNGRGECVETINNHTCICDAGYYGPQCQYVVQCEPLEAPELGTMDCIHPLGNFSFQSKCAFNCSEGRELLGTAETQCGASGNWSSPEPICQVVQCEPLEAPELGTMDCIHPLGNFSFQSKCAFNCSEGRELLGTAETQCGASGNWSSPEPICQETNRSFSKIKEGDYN
Chain of recombinant human L-selectin Fc chimera (human) (P14151 39-332, change not shown): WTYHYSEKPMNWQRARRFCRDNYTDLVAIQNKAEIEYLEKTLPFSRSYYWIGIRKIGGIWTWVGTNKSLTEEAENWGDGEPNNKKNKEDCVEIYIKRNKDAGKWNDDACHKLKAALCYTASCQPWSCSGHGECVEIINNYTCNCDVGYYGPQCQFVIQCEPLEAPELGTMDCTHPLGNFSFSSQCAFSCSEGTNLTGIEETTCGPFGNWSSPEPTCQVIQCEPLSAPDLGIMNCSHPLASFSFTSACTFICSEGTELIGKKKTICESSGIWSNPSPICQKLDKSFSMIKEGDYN

For GSnP-6 (peptide), the Kd was determined as 0.186 µM in [1] and 0.022 µM in assay [10]. The IC50 in assay [2] is 8 µM; in assay [3], 30 µM; in [4] it was 30 µM; in assay [5] it was 15 µM; in assay [8] it was 30 µM; in assay [9], above 50 µM. Further, the fold difference of Kd against human P-selectin in assay [6] was found to be 9 fold. Besides, the kon in assay [6] was found to be 49000 M⁻¹ s⁻¹; in assay [7] it was 310000 M⁻¹ s⁻¹. Further, the mean leukocyte rolling velocity (intravital microscopy, murine cremaster venules, GSnP-6 IV) in the assay with selectins on endothelium is 74.9 µm/s.

On to “native PSGL-1 (from UniProt Q14242 42-412) (ligand)”, for which, in assay [11], the Kd was found to be 0.073 µM.
